We go through one substance from US10131691B2, “Compositions and methods for specific regulation of pyruvate dehydrogenase kinase” (THE BOARD OF TRUSTEES OF THE LELAND STANFORD JUNIOR …, priority 2011, dated 2018).

No end group written: not given here.

For assay [1], the target named is T1, δPKC (Homo sapiens, UniProt Q05655).
T1 construct: purchased Invitrogen
In words: Proteinase K sensitivity of recombinant δPKC. The conditions noted are these: non-TAT conjugated peptide; vs no peptide or control peptide ΨδRACK. Format: binding. As for the experimental part:
Human recombinant δPKC (Invitrogen, Calif., USA; 50 ng; 0.625 pmole) was incubated with ΨPDK (non-TAT conjugated, 1 nmole) prior to addition of proteinase K (0.05 μg/ml) in 20 mM Tris-HCl, pH 7.4 containing 1 μM DTT. The reaction was stopped as indicated by adding 5 mM PMSF.
(§1) Since ΨPDK is derived from a PDK-like sequence in δPKC (FIG. 1B), it was reasoned that this peptide should act as a competitive inhibitor, selective for δPKC phosphorylation of PDK. To test this hypothesis directly, an in vitro kinase assay in which the ability of δPKC to phosphorylate PDK is determined was used.

The target of the next assay is T2, εPKC (Homo sapiens, UniProt Q02156).
T2 sequence (Q02156 1-737): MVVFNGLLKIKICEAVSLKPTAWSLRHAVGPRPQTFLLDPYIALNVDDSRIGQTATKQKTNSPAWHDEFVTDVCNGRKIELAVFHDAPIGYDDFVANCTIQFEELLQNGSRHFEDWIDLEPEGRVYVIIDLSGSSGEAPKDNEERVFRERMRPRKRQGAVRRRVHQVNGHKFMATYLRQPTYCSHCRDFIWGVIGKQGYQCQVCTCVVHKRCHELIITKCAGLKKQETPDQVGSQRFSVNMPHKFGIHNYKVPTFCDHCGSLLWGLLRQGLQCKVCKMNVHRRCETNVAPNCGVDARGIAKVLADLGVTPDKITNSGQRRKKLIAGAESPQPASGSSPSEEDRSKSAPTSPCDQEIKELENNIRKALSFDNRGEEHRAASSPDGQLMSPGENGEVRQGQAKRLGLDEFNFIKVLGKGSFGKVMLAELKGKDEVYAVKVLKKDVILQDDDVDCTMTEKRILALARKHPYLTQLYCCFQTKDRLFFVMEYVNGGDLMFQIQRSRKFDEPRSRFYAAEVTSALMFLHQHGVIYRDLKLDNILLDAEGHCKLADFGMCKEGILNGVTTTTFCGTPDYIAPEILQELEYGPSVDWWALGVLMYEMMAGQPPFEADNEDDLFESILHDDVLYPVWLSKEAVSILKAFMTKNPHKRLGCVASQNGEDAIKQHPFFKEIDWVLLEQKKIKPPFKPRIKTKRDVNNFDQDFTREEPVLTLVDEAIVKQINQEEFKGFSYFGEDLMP
The assay can be described thus: Proteinase K sensitivity of εPKC. Format: binding.

The subject of the next assay is Drp1. The assay can be described thus: Drp1 phosphorylation in hearts subjected to I/R. On the set-up: species or system rat. As for the experimental part:
An ex vivo model of acute ischemic heart damage was used, which involves a 30 min equilibration period, followed by 30 min of global ischemia, which in turn is followed by 60 min of reperfusion. The hearts were perfused with 1 μM TAT or TAT-conjugated peptide. Normoxic control hearts were subjected to 90 min perfusion in the absence of ischemia. Coronary effluent was collected to determine creatine phosphokinase (CPK) release during the first 30 min of the reperfusion period. At the end of the reperfusion period, hearts were sliced into 1-mm-thick transverse sections and incubated in triphenyltetrazolium chloride solution (TTC, 1% in phosphate buffer, pH 7.4) at 37° C. for 15 min. Infarct size was expressed as a percentage of the risk zone (equivalent to total LV muscle mass) (methods described in Brandman et al., 2007, J. Biol. Chem., 282:4113-4123; Inagaki et al., 2003, Circulation, 108:869-875).

The target of assay [2] is T3, δPKC (Mus musculus, UniProt P28867).
T3 construct: endogenous in cells; host or cells: primary fibroblasts from wild-type mice
T3 sequence (P28867 whole entry): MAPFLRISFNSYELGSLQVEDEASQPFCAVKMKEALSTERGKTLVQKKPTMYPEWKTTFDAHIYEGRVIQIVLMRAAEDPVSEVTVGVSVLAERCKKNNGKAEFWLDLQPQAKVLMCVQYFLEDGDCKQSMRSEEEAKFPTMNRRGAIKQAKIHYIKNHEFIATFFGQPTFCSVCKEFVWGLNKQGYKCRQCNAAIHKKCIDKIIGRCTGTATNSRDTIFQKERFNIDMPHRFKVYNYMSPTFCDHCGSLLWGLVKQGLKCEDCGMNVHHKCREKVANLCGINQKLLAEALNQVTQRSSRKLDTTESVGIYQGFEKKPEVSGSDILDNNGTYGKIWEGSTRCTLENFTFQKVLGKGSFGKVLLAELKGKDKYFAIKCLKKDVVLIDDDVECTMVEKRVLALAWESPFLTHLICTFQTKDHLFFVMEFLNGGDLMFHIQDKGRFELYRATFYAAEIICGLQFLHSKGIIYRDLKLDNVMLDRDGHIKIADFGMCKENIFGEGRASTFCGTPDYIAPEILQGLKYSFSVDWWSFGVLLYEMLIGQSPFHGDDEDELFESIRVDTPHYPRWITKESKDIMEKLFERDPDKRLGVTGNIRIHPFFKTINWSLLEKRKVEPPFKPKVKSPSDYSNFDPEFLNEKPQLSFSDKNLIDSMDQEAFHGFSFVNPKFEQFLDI
The assay can be described thus: MARCKS phosphorylation in wild-type fibroblasts (Western blot). The conditions noted are these: 20% serum, peptides conjugated to TAT47-57, relative to control peptide. Format: cell-based. An excerpt:
Fibroblasts were isolated from wild-type or δPKC knockout mice (provided by Dr. Robert Messing, Gallo Center, UCSF) as previously described (Disatnik et al., 2004, J. Cell Sci., 117:4469-4479) and maintained in 20% fetal bovine serum.
Phosphorylation of myristoylated alanine-rich C kinase substrate (MARCKS), a ubiquitous PKC substrate, was monitored by Western blot of total cell lysates, using anti-phosphorylated MARCKS (Cell Signaling, Danvers, Mass.). Anti-MARCKS and anti-δPKC antibodies were obtained from Santa Cruz Biotechnology (Santa Cruz Biotechnology, CA, USA).
The ΨPDK sequence is found both in PDK and in the PDK-cognate protein, δPKC. It was therefore predicted that ΨPDK mimics inhibitory intra-molecular interaction, and, similar to ΨδRACK, ΨPDK should compete with the inhibitory interaction of PDK and δPKC, and increase δPKC-mediated functions (FIG. 1A). Phosphorylation of myristoylated alanine-rich C-kinase substrate (MARCKS) was used as a marker of PKC activity (Disatnik et al., 2004, J. Cell. Sci., 117:4469-4479). […] To determine the selectivity of the peptides for δPKC, fibroblasts derived from δPKC knock-out mice were also used.
On the technique in general: A western blot detects proteins with antibodies after separation by electrophoresis.

Assay [3] deals with T4, δPKC phosphorylation of Drp1 (Homo sapiens, UniProt Q05655).
T4 construct: purchased Invitrogen
T4 sequence (Q05655 whole entry): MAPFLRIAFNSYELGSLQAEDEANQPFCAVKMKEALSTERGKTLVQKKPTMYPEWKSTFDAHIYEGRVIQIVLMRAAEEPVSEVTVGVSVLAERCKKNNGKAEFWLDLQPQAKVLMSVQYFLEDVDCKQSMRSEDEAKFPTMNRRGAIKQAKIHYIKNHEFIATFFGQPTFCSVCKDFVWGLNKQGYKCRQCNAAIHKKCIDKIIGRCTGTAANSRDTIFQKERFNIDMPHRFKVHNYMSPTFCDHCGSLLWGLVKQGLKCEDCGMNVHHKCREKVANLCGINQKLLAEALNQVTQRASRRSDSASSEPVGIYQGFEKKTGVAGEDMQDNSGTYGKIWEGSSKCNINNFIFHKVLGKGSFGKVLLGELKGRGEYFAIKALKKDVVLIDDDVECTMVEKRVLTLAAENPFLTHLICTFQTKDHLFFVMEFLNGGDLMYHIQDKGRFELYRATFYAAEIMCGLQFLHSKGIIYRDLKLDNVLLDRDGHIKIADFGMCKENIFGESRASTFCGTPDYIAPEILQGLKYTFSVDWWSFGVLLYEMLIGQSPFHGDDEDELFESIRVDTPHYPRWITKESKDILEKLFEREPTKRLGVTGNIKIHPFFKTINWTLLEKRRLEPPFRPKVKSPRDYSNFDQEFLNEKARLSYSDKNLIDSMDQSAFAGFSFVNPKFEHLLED
The assay can be described thus: In vitro kinase assay: δPKC phosphorylation of Drp1. Format: biochemical. As for the experimental part:
In vitro phosphorylation assay. To determine the level of PDK and Drp1 phosphorylation in presence of ΨPDK, δPKC recombinant protein (Invitrogen, Calif., USA; 200 ng) was incubated with or without peptides for 10 min, then 100 ng recombinant PDK2 (Abnova, Taiwan) or Drp1 (Abnova, Taiwan) were added for 20 min at 37° C. in 40 μl of kinase buffer (20 mM Tris-HCl, 20 mM MgCl2, 1 μM DTT, 25 μM ATP, 1 mM CaCl2) containing 5 μCi [γ^32P] ATP (4500 Ci/mmol, ICN) in the presence of the low amount of PKC activators, phosphatidylserine (PS, 1.25 μg) and 1,2 dioleoyl sn-glycerol (DG, 0.04 μg). The kinase assay was terminated by adding loading Laemmli buffer containing 5% SDS and the samples were loaded on a 10% PAGE-SDS polyacrylamide gel, and the levels of phosphorylated PDK2 protein were determined by exposing the nitrocellulose to autoradiography. The nitrocellulose was also reprobed using respective antibodies for loading controls.
as §1

T1 sequence (Q05655 whole entry): as above

Take “ALSTER (not fully specified (C-terminus); also: TAT47-57 conjugated via disulfide) [ΨPDK, for cells and hearts conjugated to TAT47-57 via disulfide bond]”: in the assay with δPKC [1], the “stability of δPKC to proteinase K digestion” value is given as “more stable to PK digestion”. The “sensitivity of εPKC to proteolysis by PK” value with εPKC is “unaffected”. Further, the Drp1 phosphorylation entry in the assay with Drp1 is recorded as “caused an increase of Drp1 phosphorylation”. For the same substance, the MARCKS phosphorylation result with δPKC [2] is listed as “increased MARCKS phosphorylation”. In addition, the “Drp1 phosphorylation by δPKC” value in assay [3] is reported as “did not affect Drp1 phosphorylation”.
